3 substances from article PMC4855144 can be followed below.

For assay [1], the target named is GST-Cdc42 constitutively active (CA/Q61L), preloaded with GTPγS (UniProt P60953). In words: pull-down; Glutathione-Sepharose beads coated with GST alone or GST-GTPase fusions pre-loaded with GDP (DN) or GTPγS (CA), incubated with lysates of HEK293T cells expressing GFP-CRN7 WT or CRIB mutants; blot with GFP mAb K3-184-2 or anti-N-WASP; ImageJ quantification, input set at 100%.

For assay [2], the target named is GST-Cdc42 dominant negative (DN/T17N), preloaded with GDP (UniProt P60953). As to the kind of experiment: GST pull-down, western blot quantified with ImageJ. The note with it: GST-Cdc42 DN on Glutathione-Sepharose beads pre-loaded with GDP; lysates from HEK293T cells; input set at 100%; 3 independent experiments; parent: est. 60; read off a plot. Background: A western blot detects proteins with antibodies after separation by electrophoresis.

For assay [3], the target named is GST-Cdc42 constitutively active (CA/Q61L), preloaded with GTPγS (UniProt P60953). As to the kind of experiment: GST pull-down, western blot quantified with ImageJ. The note with it: GST-Cdc42 CA on Glutathione-Sepharose beads pre-loaded with GTPγS; lysates from HEK293T cells; input set at 100%; 3 independent experiments; parent: est. 19; read off a plot.

Sequence of GST-Cdc42 constitutively active (CA/Q61L), preloaded with GTPγS (P60953 whole entry Q61L, the tested form may be a part): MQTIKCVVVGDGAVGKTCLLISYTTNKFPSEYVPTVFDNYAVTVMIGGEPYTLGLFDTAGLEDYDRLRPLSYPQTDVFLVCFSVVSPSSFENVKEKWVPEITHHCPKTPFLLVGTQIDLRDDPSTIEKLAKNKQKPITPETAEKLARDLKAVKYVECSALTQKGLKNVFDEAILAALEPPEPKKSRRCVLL
Sequence of GST-Cdc42 dominant negative (DN/T17N), preloaded with GDP (P60953 whole entry T17N): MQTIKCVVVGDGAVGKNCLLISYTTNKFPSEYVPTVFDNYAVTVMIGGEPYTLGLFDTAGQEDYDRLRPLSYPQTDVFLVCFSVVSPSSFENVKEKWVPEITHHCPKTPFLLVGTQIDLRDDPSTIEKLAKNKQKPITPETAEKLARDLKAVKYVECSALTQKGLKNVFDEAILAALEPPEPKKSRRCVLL
Sequence of GFP-CRN7 WT (human Coronin7, full length, GFP on its N-terminus) (from UniProt P57737) NT-CRIB S>A; P>A (… > …); residue numbers not printed (P57737 whole entry, change not shown): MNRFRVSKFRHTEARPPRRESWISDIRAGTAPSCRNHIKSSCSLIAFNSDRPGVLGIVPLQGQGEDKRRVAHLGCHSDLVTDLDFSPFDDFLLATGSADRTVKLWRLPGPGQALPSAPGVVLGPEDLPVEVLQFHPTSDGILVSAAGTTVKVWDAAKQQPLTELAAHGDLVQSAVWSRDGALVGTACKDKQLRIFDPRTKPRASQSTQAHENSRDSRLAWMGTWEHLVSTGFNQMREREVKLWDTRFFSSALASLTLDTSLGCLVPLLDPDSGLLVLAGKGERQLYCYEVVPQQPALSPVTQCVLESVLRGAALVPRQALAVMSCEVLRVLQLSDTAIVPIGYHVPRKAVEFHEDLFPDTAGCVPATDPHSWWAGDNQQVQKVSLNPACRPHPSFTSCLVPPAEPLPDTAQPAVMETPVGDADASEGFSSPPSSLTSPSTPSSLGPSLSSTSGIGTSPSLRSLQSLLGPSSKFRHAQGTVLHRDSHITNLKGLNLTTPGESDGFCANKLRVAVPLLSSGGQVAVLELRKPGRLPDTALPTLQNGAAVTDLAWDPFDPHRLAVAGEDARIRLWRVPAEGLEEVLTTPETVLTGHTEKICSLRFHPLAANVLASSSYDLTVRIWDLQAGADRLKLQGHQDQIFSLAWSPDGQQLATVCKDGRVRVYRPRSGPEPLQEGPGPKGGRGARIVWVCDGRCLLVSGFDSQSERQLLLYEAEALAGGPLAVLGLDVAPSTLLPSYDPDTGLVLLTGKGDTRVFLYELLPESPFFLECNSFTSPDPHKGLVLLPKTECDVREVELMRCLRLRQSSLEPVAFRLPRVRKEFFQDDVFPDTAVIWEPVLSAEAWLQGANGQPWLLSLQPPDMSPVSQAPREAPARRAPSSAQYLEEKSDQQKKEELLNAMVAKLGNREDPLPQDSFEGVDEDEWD
Sequence of GFP-CRN7 WT (human Coronin7, full length, GFP on its N-terminus) (from UniProt P57737) CT-CRIB L>A; T>A; P>A (… > …); residue numbers not printed (P57737 whole entry, change not shown): as above

“GFP-CRN7 WT (human Coronin7, full length, GFP on its N-terminus) (from UniProt P57737 1-925) (natural protein)”: the percent of input bound in assay [1] is 30 % of input.
Take “GFP-CRN7 WT (human Coronin7, full length, GFP on its N-terminus) (from UniProt P57737) CT-CRIB L>A; T>A; P>A (… > …); residue numbers not printed”: the response is 57 % of input in assay [2] and 41 % of input in assay [3].
The matching figures for “GFP-CRN7 WT (human Coronin7, full length, GFP on its N-terminus) (from UniProt P57737) NT-CRIB S>A; P>A (… > …); residue numbers not printed”: 67 % of input and 32 % of input.
